Laboratory results published in PMC3842537.

Columns and labels:
thrombin = thrombin (human, UniProt P00734;P00734 328-363;364-622); test: FAM fluorescence recovery on GO array
PDGF-BB = PDGF-BB (human, UniProt P01127 82-190); test: FAM fluorescence recovery on GO array
PDGF-BB, sequence (P01127 82-190): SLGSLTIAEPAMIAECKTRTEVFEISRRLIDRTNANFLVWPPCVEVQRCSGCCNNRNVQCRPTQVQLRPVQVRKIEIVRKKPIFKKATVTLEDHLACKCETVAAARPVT

Binder	binding result (thrombin)	binding result (PDGF-BB)
AGTCCGTGGTAGGGCAGGTTGGGGTGACT (structured_DNA) [thrombin aptamer (TASSET)]	binds	–
CAGGCTACGGCACGTAGAGCATCACCATGATCCTG (structured_DNA) [PDGF aptamer]	–	binds
